Legend:
[1] = target: T1, canine OX40L, full length membrane form, expressed on HEK293 cells (canine); test: flow cytometry
T1 construct: also called OX40L expressing HEK; HEK OX40L cells
T1 chain: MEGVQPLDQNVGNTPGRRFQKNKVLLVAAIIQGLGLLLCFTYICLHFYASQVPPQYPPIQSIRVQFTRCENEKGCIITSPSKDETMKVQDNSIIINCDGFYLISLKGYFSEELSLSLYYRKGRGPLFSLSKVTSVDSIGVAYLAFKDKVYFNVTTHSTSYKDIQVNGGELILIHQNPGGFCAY
Experimental: (§1) CHO supernatants diluted in FACS buffer (PBS containing 3% FBS) at 1, 5 or 10 μg/ml were used to screen for their binding capacity to canine OX40L using a cell-based assay. In brief, HEK293 or MEF cells (or any other commonly used cell lines) expressing canine OX40L at the cell surface are incubated with 100 μll of FACS buffer containing the candidate antibody for 30′ on ice. Cells are washed with 150 μl FACS buffer followed by centrifugation at 300 g for 3 min. The cell pellet is resuspended in FACS buffer containing a 1:1000 dilution of a fluorescently labelled secondary antibody recognising the canine Fc region of the test antibody for 30 min in the dark, followed by washing with 150 μl FACS buffer. Cells are resuspended in FACS buffer and flow cytometry performed using either a […] cytometer, followed by data analysis using FlowJo (FIG. 6 and Table 4).

[2] = target: T1, canine OX40L, full length membrane …; test: flow cytometry, OX40L HEK minus WT HEK
Experimental: as §1

[3] = target: T1, canine OX40L, full length membrane …; test: cell-based or functional assay

Binder	GEO mean OX40L expressing HEK [1]	GEO mean difference [2]	% Signal Inhibition Average [3]	% Signal Inhibition Rep1 [3]	% Signal Inhibition Rep2 [3]	% Signal Inhibition Rep3 [3]
PMX085 (antibody, V domains shown, also called PMX85) VH: EVKLVESGGDLVKPEGSLRLSCVVSGFTFSRYGMSWVRQAPGKGLQWVAYISSDGRSSSYTDAVQGRFTISSDNAKNTLYLQMNSLTTEDTAVYYCAKLGRGFNFNFWGQGTLVTVSS VL: SYVLTQLPSKNVTLKQPAHITCGGDNIGSKSVHWYQQKLGQAPVLIIYYDSSRPTGIPERFSGANSGNTATLTISGALAEDEADYYCQVWDSSASVFGGGTHLTVL	839000	826000	46.9%	43.8%	56.2%	40.8%
PMX082 (antibody, V domains shown, also called PMX82) VH: EVQLVESGGDLVKPGGSLRLSCVASGFTFSSHHMTWVRQAPGKGLQWVAYIVSGGTNTNYADAVKGRFTISRDNAKNTLYLQMNSLRAEDTAVYYCASDLVLAVGAPFYWGQGTLVTVSS VL: SYELTQPPSVNVTLRETAHITCGGDSIGRKYVQWIQQNPGQAPVVIIYKDINRPTGIPERFSGANSGNTATLTISGALAEDEADYYCQVGDSGTKAVFGEGTQLTVL	544000	531000	72.3%	72.8%	71.9%	72.1%
PMX083 (antibody, V domains shown, also called PMX83) VH: EVQLVESGGDLVKPGGSLRLSCVASGFTFRTYHMSWVRQAPGKGLQWVAYITRDGISTTYTDAVKGRFTISRDNAKNTLFLQMNSLRADDTAVYYCASDLVLVLGAPFYWGQGTLVTVSS VL: SYELTQPPSVNVTLGETAHITCGGDSIGRKYVQWIQQNPGQAPVVIIYKDSNRPTGIPERFSGANSGNTATLTISGALAEDEADYYCQVGDSGTKAVFGEGTQLTVL	701000	690000	71.1%	66%	65.8%	81.6%
PMX088 (antibody, V domains shown) VH: EVQLVESGGDLVKPGGSLRLSCVASGFTFNTYHMNWVRQAPGKGLHWVAFINSGGTGTGYSDTVKGRFTISRDYAKNTLYLQMNSLRAEDTAVYYCVSGSIWTHFDYWGQGTLVTVSS VL: SYVLTQLPSVSMTLRQTAHITCGGDIIGSKSVYWYQQKLGQAPVLIIYRDTNRPTGIPERFSGASSGNTATLTISGALAEDEADYYCQVWDSNTQAVFGGGTHLTVL	783000	775000	7.21%	17%	3.51%	1.17%
PMX086 (antibody, V domains shown) VH: EVQLVESGGDLVKPGGSLRLSCVASGFTFSSYHMSWVRQAPGKGLQWVAFINSAESSTTYADAVKGRFTISRDNAKNTLYLQMNSLRAEDTAVYYCAGGYIWTHFDYWGQGTLVTVSS VL: SYVLTQLPSVSVTLRQTARITCGGDIIGSKSVYWYQQNLGQAPVLIIYRDTNRPTGIPERFSGASSGNTATLTISGALAEDEADYYCQVWDSSTSVFGGGTHLTVL	857000	849000	18.3%	5.85%	35.1%	14%
PMX087 (antibody, V domains shown) VH: EVHLVESGGDLVKPGGSLRLSCVASGFTFSNYHMSWVRQAPGKGLQWVAFINSGGSGTSYADAVKGRFTISRDYAKSTLYLQMNSLRAEDTAVYYCASGYIWTHFDYWGQGTLVTVSS VL: SYVLTQLPSVSVTLRQTARITCGGDIIGSKNVYWYQQKLGQAPILIIYRDSNRPTGIPERFSGASSGNTATLTISGALAEDEADYYCQVWDSSTSVFGGGTHLTVL	1.05e+06	1.04e+06	32.6%	29.8%	46.2%	21.6%
PMX110 (antibody, V domains shown) VH: EVQLVESGGDLVRPGGSLRLSCVASGFTFSSYHMSWVRQAPGKGLQWVAFINSGGSSTTYADVVRGRFTISRDYAKNTLYLQMNSLRAEDTAVYYCASGSILTHFDYWGQGTLVTVSS VL: SFVLTQLPSVSVTLRQTARITCGGDSVGSKSVYWYQQKLGQAPVLIIYRDSNRPTGIPERFSGASSGNTATLTISGALAEDEADYYCQVWDNSNKAMFGGGTHLTVL	31900	28400	37.4%	55.2%	43.1%	13.7%
PMX107 (antibody, V domains shown) VH: AVQLVESGGDLVRPGGSLRLSCVASGFTFSSYHMNWVRQAPGKGLQWVAFINSGGSSTTYADVVRGRFTISRDYAKNTLFLQMNSLRAEDTAVYYCAIVSIWTHFDYWGQGTLVTVSS VL: SFVLTQLPSVSVTLRQTARITCGGDIIGSKNVYWYQQRLGQAPVLILYRDTNRPTGIPERFSGASSGNTATLTISGALAEDEADYYCQVWDNSNKAMFGGGTHLTVL	58800	55200	-5.31%	7.14%	20.9%	-44%
PMX108 (antibody, V domains shown) VH: EVQLVESGGDLVRPGGSLRLSCVASGFTFTNYHMSWVRQAPGKGLQWVAFINSGGSSTTYTDVVRGRFTISRDYAKNTLYLQMNSLTAEDTAVYYCASGAIWTHFDHWGQGTLVTVSS VL: SFVLTQLPSVSVTLRQTARITCGGDSVGSKSVYWYQQKLGQAPVLIIYRDSNRPTGIPERFSGASSGNTATLTISGALAEDEADYYCQVWDNSNKAIFGGGTHLTVL	611000	607000	82.2%	95.6%	89.8%	61.3%
PMX111 (antibody, V domains shown) VH: EVQLVESGGDLVRPGGSLRLSCVASGFTFSSYHMNWVRQAPGKGLQWVAFINSGASSATYADVVRGRFTISRDYAKNTLYLQMNSLRAEDTAVYYCASGSIWTHFDFWGQGTLVTVSS VL: SFVLTQLPSVSVTLRQTARITCGGDSVGSKSVYWYQQKLGQAPVLIIYRDSNRPTGIPERFSGASSGNTATLTISGALAEDEADYYCQVWDNSNKAMFGGGTHLTVL	647000	643000	38.9%	44.2%	37.4%	35.2%
PMX109 (antibody, V domains shown) VH: EVQLVESGGDLVRPGGSLRLSCVASGFTFTNYHMSWVRQAPGKGLQWVAFINSGGSSTTYTDVVRGRFTISRDYAKNTLYLQMNSLTAEDTAVYYCASGSIWTHFDHWGQGTLVTVSS VL: SFVLTQLPSVSVTLRQTARITCGGDSVGSKSVYWYQQKLGQAPVLIIYRDSNRPTGIPERFSGASSGNTATLTISGALAEDEADYYCQVWDNSNKAIFGGGTHLTVL	633000	629000	53.3%	67.9%	69.5%	22.5%
PMX292 (antibody, V domains shown) VH: AVQLVESGGDLVRPGGSLRLSCVASGFTFSNFDMYWVRQAPGRGLQWVATISYDGFNTYSTDTVRGRFTISRDNARNTVYLQMNSLRVEDTAVFYCTARRFGLGYWGQGTLVTVSS VL: DIFMAQTPPSLSVSPRETASISCKASQSLLHSDGNTYLDWYLQKPGQSPQLLIYLVSNRFPGVSDRFSGSGSGTGFTLRISRVEASDTGVYYCGQGTQLPYTFSQGTKLEIK	471000	467000	71.6%	97.5%	54.4%	62.9%
PMX291 (antibody, V domains shown) VH: EVQLVESGGDLLKPGGSLRLSCVASGFPFRNYDMTWVRQAPGKGLQWVAAIHYDGSNTYYTDAVKGRFTISRDNARNTVFLQMNSLRAEDTAVYYCAKKFNNYRPFDYWGQGTLVTVSS VL: DIVMTQTPPSLSVSPRETPSISCKASQSLLRSDGNTYLEWYLQKPGQSPQLLIYLVSNRFTGVSDRFSGSGSGTDFTLRISRVEANDAGVYYCGQGTQLPWTFGAGTKVELK	463000	459000	73.3%	95.9%	70.3%	53.6%

Reference: patent US20250340659A1 (PETMEDIX, published 2025)
